Assay results taken from PMC3303126 (Nature structural & molecular biology, 2012).

Experiments:
[1] = molecular target: T1, ProtA-Sac3 250-563;Thp1;Sem1 (Saccharomyces cerevisiae;Saccharomyces …, UniProt P46674;Q08231;O94742 250-563;1-455;1-89, ||); assay: EMSA
T1 sequence 1: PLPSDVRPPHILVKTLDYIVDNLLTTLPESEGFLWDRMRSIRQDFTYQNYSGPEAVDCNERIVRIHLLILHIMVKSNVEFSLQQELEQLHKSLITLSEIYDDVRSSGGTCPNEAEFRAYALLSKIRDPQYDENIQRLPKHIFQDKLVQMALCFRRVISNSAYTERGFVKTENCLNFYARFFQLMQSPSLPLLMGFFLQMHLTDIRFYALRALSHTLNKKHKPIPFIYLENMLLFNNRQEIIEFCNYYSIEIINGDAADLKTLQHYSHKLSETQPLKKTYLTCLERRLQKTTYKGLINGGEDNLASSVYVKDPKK
T1 sequence 2: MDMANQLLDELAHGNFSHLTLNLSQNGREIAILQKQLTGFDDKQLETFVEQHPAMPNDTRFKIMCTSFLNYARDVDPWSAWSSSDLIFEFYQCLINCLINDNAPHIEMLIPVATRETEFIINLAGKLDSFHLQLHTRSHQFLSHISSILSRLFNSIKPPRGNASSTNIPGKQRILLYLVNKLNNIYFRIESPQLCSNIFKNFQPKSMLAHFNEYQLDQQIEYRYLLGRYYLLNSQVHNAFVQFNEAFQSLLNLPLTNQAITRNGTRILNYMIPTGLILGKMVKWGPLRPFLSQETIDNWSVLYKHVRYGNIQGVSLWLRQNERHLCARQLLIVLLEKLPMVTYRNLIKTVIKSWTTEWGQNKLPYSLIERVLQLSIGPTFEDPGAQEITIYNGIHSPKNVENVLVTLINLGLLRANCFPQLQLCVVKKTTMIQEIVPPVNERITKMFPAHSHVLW
T1 sequence 3: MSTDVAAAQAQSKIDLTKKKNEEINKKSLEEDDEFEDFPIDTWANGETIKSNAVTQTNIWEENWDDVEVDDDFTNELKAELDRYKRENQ

[2] = molecular target: T2, Sac3-M (Sac3 250-563);Thp1;Sem1 (Saccharomyces cerevisiae;Saccharomyces …, UniProt P46674;Q08231;O94742 250-563;1-455;1-89, ||); assay: EMSA
T2 sequence 1: T1 sequence 1
T2 sequence 2: T1 sequence 2
T2 sequence 3: T1 sequence 3

[3] = molecular target: T3, His-Thp1 (full-length Thp1, coexpressed with Sem1) (S. cerevisiae, UniProt Q08231 1-455); assay: pull-down
T3 sequence: T1 sequence 2

[4] = molecular target: T3, His-Thp1 (full-length Thp1, coexpressed …); assay: crystal structure
[5] = molecular target: T2, Sac3-M (Sac3 250-563);Thp1;Sem1; assay: EMSA; remark: listed apart in the source

## AAAAAAAAAAAAAAAAAAAAAAAAA (ssRNA) [polyA25 RNA]
[1]
  binding result: binds
[2]
  binding result: binds

B1: Sem1 (full length, bacterially expressed) (natural protein)
chain: T1 sequence 3
[3]
  binding result: binds

B2: Sac3 residues 250-563 (Sac3-M), as crystallised (domain or fragment)
chain: T1 sequence 1
[4]
  binding result: binds

## UUUUUUUUUUUUUUUUUUUUUUUUU (ssRNA) [polyU25 RNA]
[5]
  Kd: 175 nM
